A short description of the data set: amyloid nucleation score (Sup35N fusion, yeast selection) (log enrichment); library NNK3; higher = more nucleation; inactive = no reads after selection. The essentials: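 Using DiMSum, nucleation scores were taken as the log enrichment of output over input reads, centred on the mode score of non-aggregating sequences. The input and output reads came from Illumina sequencing of plasmid inserts, with sequences under 100 input reads excluded. The yeast were psi-negative, expressed Sup35N fused to peptides of 20 random codons, were induced with 100 μM copper sulfate for 24 hours, and were grown 7 days at 30°C on medium lacking adenine and uracil.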

± gives the uncertainty stated by the source.

As to LISMVYLNVRLCQ, the amyloid nucleation score result was “inactive”.

SNEHAVVYS: the amyloid nucleation score result was “inactive”.

For HIRRCEVTNTF, the amyloid nucleation score entry is “inactive”.

With SPRQHARCRTLTLTRTLRPM, the amyloid nucleation score result was “inactive”.

In the case of DRIAHF, the amyloid nucleation score result was “inactive”.

As for CWNLISWSKEYA, the amyloid nucleation score entry is “inactive”.

As to NLVRSDSVRFAYVKWGPMHG, the amyloid nucleation score result is “inactive”.

For the substance PKNLFISRLPL, the amyloid nucleation score entry was “inactive”.

Substance WNYHFPSS came in with an amyloid nucleation score of 0.339 ± 0.37.

As for VTLCLSKLAF, the amyloid nucleation score stood at 1.26 ± 0.097.

As for MGVIMEGMRFFFVWMQM, the amyloid nucleation score result is “inactive”.

On to HVLYRRSSPYCVRWCNITER, for which the amyloid nucleation score result is “inactive”.

Take SNGKVTLYKRLRDTSPQGIY: the amyloid nucleation score result was “inactive”.

Turning to VYFFSGLGTCD, the amyloid nucleation score entry was “inactive”.

For the substance LASRRQMMWVVHRFLNGAVH, the amyloid nucleation score result is “inactive”.

In the case of CAPLSVVWNSRGFM, the amyloid nucleation score entry was “inactive”.

Take IYDCNRDIGDVLTSSDPPHA: the amyloid nucleation score result was “inactive”.

With FSVLVSCSWGMKFI, the amyloid nucleation score result is “inactive”.

On to YWQHWWL, for which the amyloid nucleation score entry was “inactive”.

Take YSMIKFSISAD: the amyloid nucleation score result is “inactive”.

As for RNVVAESRKSWGHCVRVTYT, the amyloid nucleation score entry was “inactive”.

In the case of LKFLLRNILVRYYMDVGPVS, the amyloid nucleation score entry is “inactive”.

As for FDWIQDHSQCGIIFTCVKLG, the amyloid nucleation score result is “inactive”.

On to FWWKSYFFNLKV, for which the amyloid nucleation score result was “inactive”.

Take YSYANSMNMGMMFMGRLGW: the amyloid nucleation score entry is “inactive”.

For the substance LLYQFSELQMASWNNKKKEL, the amyloid nucleation score result is “inactive”.

As for YANFVRYNRLVKDRAVRSPK, the amyloid nucleation score result is “inactive”.

With SDCSGYLQ, the amyloid nucleation score result was “inactive”.

Consider RYRLSCWWIRLGGNRLAWY, for which the amyloid nucleation score entry is “inactive”.

In the case of DMFVECRLISFNFTFIRVLI, the amyloid nucleation score entry was “inactive”.

As to VPGRVMVLRIWIYRNVQKRG, the amyloid nucleation score result was “inactive”.

Take SFFGVVGKEFVIVQLAIVSG: the amyloid nucleation score entry is “inactive”.

SWLCPFNGA: the amyloid nucleation score entry was “inactive”.

For VLSCVAIRSYILHKVSVGIC, the amyloid nucleation score entry is “inactive”.

On to FLDIRMMIRRLTGGPESVSL, for which the amyloid nucleation score result was “inactive”.

For HVGAIMLLLLLTSERLMTLD, the amyloid nucleation score result is “inactive”.

The substance IQTQTGTLVSRPLQPTAVVR came in with an amyloid nucleation score of -0.007 ± 0.82.

Take IFLDNFFKSFFGRRGSKS: the amyloid nucleation score came to 0.662 ± 0.13.

With QRCCP, the amyloid nucleation score result is “inactive”.

In turn, LKDWVRYGVEIQAVSMGILV had an amyloid nucleation score of 0.221 ± 0.16.

On to PLRKSGQPSYAMPTRHARCI, for which the amyloid nucleation score entry was “inactive”.

In the case of MCTTRGYMF, the amyloid nucleation score result was “inactive”.

For the substance RLNCDCPAMHVCN, the amyloid nucleation score came to 2.35 ± 0.074.

Turning to LSFWVSYLGIVFLQNICEEW, the amyloid nucleation score entry is “inactive”.

For the substance KDRSCNALWGLDCLYGNKGC, the amyloid nucleation score was -0.197 ± 0.61.

Take NVALVRTGVIHWSYSVISRV: the amyloid nucleation score entry is “inactive”.

Turning to PYRYLGARIRCMAKDSVSHI, the amyloid nucleation score result is “inactive”.

FYEVRVRRVRVHVKEQPLLH: the amyloid nucleation score was -0.406 ± 1.3.

For NGWYKVGLMA, the amyloid nucleation score entry was “inactive”.

Take GEKIDRVM: the amyloid nucleation score result was “inactive”.

In turn, MLCKYTCLICYGYRTKRSSE returned an amyloid nucleation score of 0.684 ± 0.17.

Take SVRRQHPFN: the amyloid nucleation score entry was “inactive”.

As for VQRSYWICQLPAGVSWSGI, the amyloid nucleation score entry is “inactive”.

For LVRYLENIRLRS, the amyloid nucleation score entry was “inactive”.

GDCVLDPDLRSWDEW: the amyloid nucleation score result is “inactive”.

For the substance HGGCC, the amyloid nucleation score entry was “inactive”.

As to LDCTHSTLFWWRRFVSAYSL, the amyloid nucleation score entry was “inactive”.

On to DYATESFTVITLLGILLDRG, for which the amyloid nucleation score result is “inactive”.

Consider MLMVDDYEYMRFQMAGMVYM, for which the amyloid nucleation score entry was “inactive”.

On to VPVVGISYSYLILWFYLYVG, for which the amyloid nucleation score result is “inactive”.

On to GCVMVKSSLMFSLLR, for which the amyloid nucleation score is -0.883 ± 1.2.

In the case of KMFWLVTHRLN, the amyloid nucleation score result was “inactive”.

For the substance CRCFLPWGWLV, the amyloid nucleation score result was “inactive”.

ASNCDPMIHFLMHKVYKSFY displayed an amyloid nucleation score of -0.103 ± 0.64.

With AHVSLVSLRKRLPYFGFASV, the amyloid nucleation score entry was “inactive”.

Regarding YRFSRFKMRAVPTMILKLNV, the amyloid nucleation score is -0.056 ± 0.35.

In the case of VGRAEWLC, the amyloid nucleation score entry was “inactive”.

Turning to LGPREQDLINFNWVFQYLKH, the amyloid nucleation score result is “inactive”.

With ASYYF, the amyloid nucleation score result was “inactive”.

In the case of LVWWDGSEWTTWGVADIDWT, the amyloid nucleation score result is “inactive”.

Substance RVWHLYTMV came in with an amyloid nucleation score of -1.11 ± 1.9.

Consider KNQNMMMSSQFSMYCWFRLT, for which the amyloid nucleation score entry is “inactive”.

Consider HLTLSAQRATSVVCERLQIS, for which the amyloid nucleation score entry is “inactive”.

Turning to YWVWLGPQNI, the amyloid nucleation score is 0.115 ± 0.41.

As for SRKIFEGTIRIRLTDSASFS, the amyloid nucleation score entry was “inactive”.

Regarding LEDRACVFNKLIVLQ, the amyloid nucleation score entry is “inactive”.

With CVMAMPSNIEV, the amyloid nucleation score result is “inactive”.

IIAGGTYECQIQIVYF registered an amyloid nucleation score of 1.22 ± 0.14.

With EITLYEQGNNRSLVGPERKS, the amyloid nucleation score entry is “inactive”.

For the substance YLYSCDSFCFLDPRYMRCPE, the amyloid nucleation score entry was “inactive”.

As for WSLMCRVAYRYGRVRNSKSG, the amyloid nucleation score entry was “inactive”.

On to VTSGLERTMFSGNKRRIEVS, for which the amyloid nucleation score result is “inactive”.

For KKMHNVALGFMFIVVG, the amyloid nucleation score result is “inactive”.

With FVHRLPGWGSKLKTIRTCSN, the amyloid nucleation score result was “inactive”.

As for SRLDALLMKLCFVICLRILK, the amyloid nucleation score entry was “inactive”.

NFSVTYEFFGQSI came in with an amyloid nucleation score of 0.292 ± 0.32.

Turning to YIAFCSRDSFRLVMRHNSGI, the amyloid nucleation score result is “inactive”.

As for NMRCSIHARGSRHGVRDDTQ, the amyloid nucleation score entry was “inactive”.

Regarding IFCST, the amyloid nucleation score entry is “inactive”.

Take QGLSGRRGYSDRY: the amyloid nucleation score entry is “inactive”.

Substance AMQIYTLVMGSPRDFDYWKV had an amyloid nucleation score of 1.14 ± 0.11.

In the case of SLVSGLRCVWLMFVSNGHQK, the amyloid nucleation score entry was “inactive”.

On to FYRRNAI, for which the amyloid nucleation score result is “inactive”.

As for NIFRMRNQVIRSVLNVHVMT, the amyloid nucleation score entry was “inactive”.

On to CEYLGPVYIM, for which the amyloid nucleation score entry is “inactive”.

In the case of CGWIFNLYSRRIQALEGRAS, the amyloid nucleation score result was “inactive”.

With ALFSKYIYITFNYYFMQKWL, the amyloid nucleation score came to 2.54 ± 0.054.

For NIRYFYAFRLA, the amyloid nucleation score entry is “inactive”.

In the case of LASRMMFSLTDAMTDADGSV, the amyloid nucleation score result was “inactive”.

Consider KCTGYAGCCWWT, for which the amyloid nucleation score result is “inactive”.

As to FFSDTYSNTSPM, the amyloid nucleation score result was “inactive”.

On to TRFLCSGV, for which the amyloid nucleation score result is “inactive”.

As to MTYAVCGYSIFHKITRTRFG, the amyloid nucleation score result is “inactive”.

In the case of TLSCDRKNCVVHCFLIQRFL, the amyloid nucleation score entry was “inactive”.

Consider YLWPLFFSFE, for which the amyloid nucleation score entry is “inactive”.

Regarding YRIGCRF, the amyloid nucleation score result is “inactive”.

As for RQTTYHGGKWLCSSVSGMYN, the amyloid nucleation score entry was “inactive”.

Take ILSYARTFVLIDNKVGMLR: the amyloid nucleation score entry was “inactive”.

Consider PLRKCAMCSWVSSGEGPTYP, for which the amyloid nucleation score was 0.483 ± 0.24.

Consider SVYLT, for which the amyloid nucleation score result was “inactive”.

For the substance SHVWPLLMYHGGIVWSKS, the amyloid nucleation score result is “inactive”.

VGTLRSAGIIMVSRELVMRV: the amyloid nucleation score entry was “inactive”.

The substance NWGRKCLFSSWCLLYVDNGT came in with an amyloid nucleation score of 0.555 ± 0.2.

Take IRQGNVYK: the amyloid nucleation score entry was “inactive”.

With NFSFGGLIISGCIMRNWGLQ, the amyloid nucleation score came out at 2.92 ± 0.077.

For the substance CKAESLWFNGLF, the amyloid nucleation score result was “inactive”.

Take IQHSFCGRNSDLPLNVWLMW: the amyloid nucleation score result is “inactive”.

VFETEKLSHFKCEVLDCQ: the amyloid nucleation score result was “inactive”.

As to YYCCC, the amyloid nucleation score amounted to 1.63 ± 0.072.

With YSVWVGLCVYSDGYRYNMPE, the amyloid nucleation score was 2.06 ± 0.062.

In the case of LVAFATWYNGWWVPRENEFR, the amyloid nucleation score was determined as 0.033 ± 0.47.

CWLYFLS: the amyloid nucleation score result was “inactive”.

Consider MCGDCICVVSVMLAHAPKCS, for which the amyloid nucleation score result is “inactive”.

On to SEVWKWMPDKCVSDGYVFDI, for which the amyloid nucleation score result is “inactive”.

Regarding RPMKLRCASGWNVDTQFFDT, the amyloid nucleation score entry is “inactive”.

ANICVFFSLDWFCPLFLSHK had an amyloid nucleation score of 2.34 ± 0.079.

Take SVIMFINRIPGSNPL: the amyloid nucleation score entry was “inactive”.

YIVWCHVVWLADCR: the amyloid nucleation score result was “inactive”.

Turning to CFDTSLSVPGPMCYWKTKHG, the amyloid nucleation score entry is “inactive”.

Substance NNCRSLY had an amyloid nucleation score of 0.927 ± 0.21.

As for SSGNMCFYPAPGYYWIATSK, the amyloid nucleation score entry is “inactive”.

On to GTIMMWLGVQRVLTASGKGG, for which the amyloid nucleation score result was “inactive”.

Consider QSYVSFYMQVLRSDRTDILR, for which the amyloid nucleation score result was “inactive”.

The values above are taken from the supplement of paper PMC12042874.
